B1: Signaling lymphocytic activation molecule (Mus musculus), Q9QUM4 (parent)
chain: MDPKGSLSWRILLFLSLAFELSYGTGGGVMDCPVILQKLGQDTWLPLTNEHQINKSVNKSVRILVTMATSPGSKSNKKIVSFDLSKGSYPDHLEDGYHFQSKNLSLKILGNRRESEGWYLVSVEENVSVQQFCKQLKLYEQVSPPEIKVLNKTQENENGTCSLLLACTVKKGDHVTYSWSDEAGTHLLSRANRSHLLHITLSNQHQDSIYNCTASNPVSSISRTFNLSSQACKQESSSESSPWMQYTLVPLGVVIIFILVFTAIIMMKRQGKSNHCQPPVEEKSLTIYAQVQKSGPQEKKLHDALTDQDPCTTIYVAATEPAPESVQEPNPTTVYASVTLPES

Variants of: B1
Details: with becn1_human BECN1, Q14457
Chain of becn1_human BECN1, Q14457 (Q14457 whole entry): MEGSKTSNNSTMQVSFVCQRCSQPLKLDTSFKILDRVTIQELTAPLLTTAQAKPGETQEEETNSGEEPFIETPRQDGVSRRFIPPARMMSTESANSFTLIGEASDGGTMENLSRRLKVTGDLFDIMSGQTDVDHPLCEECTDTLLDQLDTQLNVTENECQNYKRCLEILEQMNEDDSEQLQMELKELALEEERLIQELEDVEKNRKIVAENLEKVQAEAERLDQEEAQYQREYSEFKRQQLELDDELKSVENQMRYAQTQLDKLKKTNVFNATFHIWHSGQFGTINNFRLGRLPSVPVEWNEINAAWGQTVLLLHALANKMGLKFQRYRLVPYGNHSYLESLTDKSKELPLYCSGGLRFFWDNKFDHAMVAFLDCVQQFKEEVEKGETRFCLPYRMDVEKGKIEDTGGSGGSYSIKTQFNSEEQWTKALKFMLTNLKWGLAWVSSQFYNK

Variant | effect of a mutation on the interaction
Y288F;Y335F | decreasing interaction
Y315F;Y335F | decreasing interaction
Y288F;Y315F | decreasing interaction

Reference: IntAct's records for PubMed 22493499
